One experiment relates to CT26 tumor. In words: CT26 syngeneic mouse tumor model. The format is in vivo. The note with it: for effect of doxorubicin on the inhibition of tumor growth by the antibody: CT26, antibody 3 mg/kg + Doxorubicin 2 mg/kg; for tumor growth in vivo: CT26 in BALB/c mice, antibody 3 mg/kg intraperitoneally twice a week for two weeks. Here is the method: Syngeneic models are allografts immortalized from mouse cancer cell lines, which are then grafted back into the same inbred immunocompetent mouse strain. CT26 is an N-nitroso-N-methylurethane-(NNMU) induced undifferentiated fibroblastic colon carcinoma cell line established from BALB/c mice with aggressive colon carcinoma. C26 cells were purchased from ATCC® (CRL-2638™) and maintained in RPMI-1640 medium supplemented with 10% FBS and 1% penicillin, 1% streptomycin at 37° C., 5% CO2. Cell lines used were authentic and confirmed to be mycoplasma negative. The cells are adherent with a fibroblast morphology and will form tumors and metastases post implantation into syngeneic BALB/c mice or immunocompromised mice.
1×10^6 cells diluted inPBS:Matrigel (1:1) were subcutaneously implanted using a 27G insulin syringe into anesthetized […] old female Balb/c mice under aseptic conditions. All animal maintenance, handling, surveillance, and animal procedures were performed in accordance with an approval from the APLAC protocol.
Once tumors reached 100-150 mm^3, mice were randomized into 6 groups of five mice each: • 1. Control isotype 3 mg/kg, • 2. Control isotype 3 mg/kg+Doxorubicin 2 mg/kg • 3. KNJY C1-831 3 mg/kg • 4. KNJY C1-831 3 mg/kg+Doxorubicin • 5. KNJY C1-787A 3 mg/kg • 6. KNJY C1-787A 3 mg/kg+Doxorubicin 2 mg/kg.
Doxorubicin is soluble in water. All test articles were dosed intraperitoneally twice a week for two consecutive weeks. Antibodies were dosed 4 hr prior to Doxorubicin.
Tumors were measured three times a week using a calibrated Vernier Caliper and tumor volume calculated as per the formula ½*L*S*S, where L is the long axis and S is the short axis of the tumor. Body weights were recorded before treatment started and were continuously monitored throughout the study. Animals were euthanized when turning moribund according to the above-mentioned predefined criteria rapid weight loss, loss of ability to ambulate, labored respiration, or inability to drink or feed to avoid animal suffering.

In experiment [1] the target is T1, cynomolgus ABCC1 (Macaca fascicularis, UniProt Q864R9). In words: Titration binding assay of humanized antibodies (FIGS. 8A-8C), cynomolgus ABCC1. More on the design: expressed in transfected cells; host or cells: 293T cells. The settings on record: cell line not stated. The protocol:
(§1) Binding titration of recombinant antibodies to KPC1 transfectants was performed by serial dilution of antibodies from about 666 nM, Diluted antibody in flow cytometry buffer was incubated with cells on ice for 30 min. After 2 washes with flow cytometry buffer, bound antibody was detected with PE-labeled F(ab′)2 fragment goat anti-human IgG (Jackson ImmunoResearch) diluted 1:200 in flow cytometry buffer and incubated with cells for 20 min on ice. After 2 washes with flow cytometry buffer fluorescence was measured on an Attune NxT flow cytometer. Data were analyzed with GraphPad Prism 8.0 software to determine EC50's.

Experiment [2] addresses T2, human ABCC1 (Homo sapiens, UniProt P33527). In words: ABCC1 efflux assay in HEK293T cells expressing human ABCC1. The format is cell-based. More on the design: expressed in transfected cells; host or cells: 293T (HEK 293T) cells. The note with it: HEK293T cells expressing human ABCC1, Calcein AM fluorescence. The protocol:
HEK 293T cells expressing human ABCC1 were washed several times and aliquoted into 96-well plates as 50 μl aliquots/well at a cell density of 1×10^6 cells per ml in phenol red-free DMEM. Cells were mixed with 50 μl antibodies and incubated for 1.5 h at 37° C. The cells were then washed twice and finally resuspended in […] PBS. Calcein AM fluorescence was measured by flow cytometry.

Experiment [3] deals with T2, human ABCC1. In words: Titration binding assay of humanized antibodies (FIGS. 8A-8C), human ABCC1. More on the design: expressed in transfected cells; host or cells: 293T (HEK 293T) cells. The settings on record: cell line not stated. Here is the method: as §1
Experiment [4] has as its target T1, cynomolgus ABCC1. In words: Titration binding to cynomolgus ABCC1-overexpressing rat C6 glioma cells (FACS). More on the design: expressed in transfected cells.
The target of experiment [5] is T2, human ABCC1. In words: Titration binding to human ABCC1-overexpressing rat C6 glioma cells (FACS). More on the design: expressed in transfected cells.

Consider 9 molecules from US20230272117A1, “ANTI ABCC1 ANTIBODIES AND USES THEREOF” (Kenjockety Biotechnology, Inc., priority 2020, published 2023).

T1 sequence (Q864R9 whole entry, the tested form may be a part): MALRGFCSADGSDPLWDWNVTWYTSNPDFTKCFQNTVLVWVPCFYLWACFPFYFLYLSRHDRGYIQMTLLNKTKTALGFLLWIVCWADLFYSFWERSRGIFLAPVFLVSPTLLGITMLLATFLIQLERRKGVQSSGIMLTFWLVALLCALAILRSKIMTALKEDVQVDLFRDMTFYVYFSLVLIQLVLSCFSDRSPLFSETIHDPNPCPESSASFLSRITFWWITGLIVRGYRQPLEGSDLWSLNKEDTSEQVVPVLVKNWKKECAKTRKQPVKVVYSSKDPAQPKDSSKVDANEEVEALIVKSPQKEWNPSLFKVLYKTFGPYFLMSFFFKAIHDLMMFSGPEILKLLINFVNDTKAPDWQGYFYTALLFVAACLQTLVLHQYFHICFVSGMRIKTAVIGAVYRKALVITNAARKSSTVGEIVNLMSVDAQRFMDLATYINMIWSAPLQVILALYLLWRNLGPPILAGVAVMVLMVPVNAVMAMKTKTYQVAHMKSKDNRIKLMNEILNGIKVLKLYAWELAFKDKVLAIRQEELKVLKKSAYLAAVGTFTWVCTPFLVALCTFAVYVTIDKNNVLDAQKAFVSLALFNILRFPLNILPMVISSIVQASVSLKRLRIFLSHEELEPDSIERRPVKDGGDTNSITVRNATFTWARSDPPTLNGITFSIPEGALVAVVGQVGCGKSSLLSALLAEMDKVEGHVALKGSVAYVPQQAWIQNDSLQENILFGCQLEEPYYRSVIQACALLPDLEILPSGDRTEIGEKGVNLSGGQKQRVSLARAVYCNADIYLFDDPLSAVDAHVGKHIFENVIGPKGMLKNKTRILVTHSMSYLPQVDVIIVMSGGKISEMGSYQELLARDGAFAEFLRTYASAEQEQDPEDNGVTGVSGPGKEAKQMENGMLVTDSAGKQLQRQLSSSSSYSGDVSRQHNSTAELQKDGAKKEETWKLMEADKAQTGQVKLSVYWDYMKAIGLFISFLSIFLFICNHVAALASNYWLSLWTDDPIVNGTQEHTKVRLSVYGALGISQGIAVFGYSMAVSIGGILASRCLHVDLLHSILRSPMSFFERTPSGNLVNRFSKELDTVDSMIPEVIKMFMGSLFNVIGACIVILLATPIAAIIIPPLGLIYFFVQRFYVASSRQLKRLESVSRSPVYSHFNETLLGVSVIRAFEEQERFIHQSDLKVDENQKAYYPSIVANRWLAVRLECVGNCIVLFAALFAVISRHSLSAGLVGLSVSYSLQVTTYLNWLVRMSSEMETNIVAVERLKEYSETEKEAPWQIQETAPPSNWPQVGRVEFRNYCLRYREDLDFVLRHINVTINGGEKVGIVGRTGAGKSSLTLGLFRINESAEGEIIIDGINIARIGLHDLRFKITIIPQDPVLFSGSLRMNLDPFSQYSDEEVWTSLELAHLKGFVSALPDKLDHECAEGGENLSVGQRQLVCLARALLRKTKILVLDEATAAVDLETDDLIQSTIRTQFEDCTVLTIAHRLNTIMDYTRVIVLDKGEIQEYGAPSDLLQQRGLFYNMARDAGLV
T2 sequence (P33527 whole entry): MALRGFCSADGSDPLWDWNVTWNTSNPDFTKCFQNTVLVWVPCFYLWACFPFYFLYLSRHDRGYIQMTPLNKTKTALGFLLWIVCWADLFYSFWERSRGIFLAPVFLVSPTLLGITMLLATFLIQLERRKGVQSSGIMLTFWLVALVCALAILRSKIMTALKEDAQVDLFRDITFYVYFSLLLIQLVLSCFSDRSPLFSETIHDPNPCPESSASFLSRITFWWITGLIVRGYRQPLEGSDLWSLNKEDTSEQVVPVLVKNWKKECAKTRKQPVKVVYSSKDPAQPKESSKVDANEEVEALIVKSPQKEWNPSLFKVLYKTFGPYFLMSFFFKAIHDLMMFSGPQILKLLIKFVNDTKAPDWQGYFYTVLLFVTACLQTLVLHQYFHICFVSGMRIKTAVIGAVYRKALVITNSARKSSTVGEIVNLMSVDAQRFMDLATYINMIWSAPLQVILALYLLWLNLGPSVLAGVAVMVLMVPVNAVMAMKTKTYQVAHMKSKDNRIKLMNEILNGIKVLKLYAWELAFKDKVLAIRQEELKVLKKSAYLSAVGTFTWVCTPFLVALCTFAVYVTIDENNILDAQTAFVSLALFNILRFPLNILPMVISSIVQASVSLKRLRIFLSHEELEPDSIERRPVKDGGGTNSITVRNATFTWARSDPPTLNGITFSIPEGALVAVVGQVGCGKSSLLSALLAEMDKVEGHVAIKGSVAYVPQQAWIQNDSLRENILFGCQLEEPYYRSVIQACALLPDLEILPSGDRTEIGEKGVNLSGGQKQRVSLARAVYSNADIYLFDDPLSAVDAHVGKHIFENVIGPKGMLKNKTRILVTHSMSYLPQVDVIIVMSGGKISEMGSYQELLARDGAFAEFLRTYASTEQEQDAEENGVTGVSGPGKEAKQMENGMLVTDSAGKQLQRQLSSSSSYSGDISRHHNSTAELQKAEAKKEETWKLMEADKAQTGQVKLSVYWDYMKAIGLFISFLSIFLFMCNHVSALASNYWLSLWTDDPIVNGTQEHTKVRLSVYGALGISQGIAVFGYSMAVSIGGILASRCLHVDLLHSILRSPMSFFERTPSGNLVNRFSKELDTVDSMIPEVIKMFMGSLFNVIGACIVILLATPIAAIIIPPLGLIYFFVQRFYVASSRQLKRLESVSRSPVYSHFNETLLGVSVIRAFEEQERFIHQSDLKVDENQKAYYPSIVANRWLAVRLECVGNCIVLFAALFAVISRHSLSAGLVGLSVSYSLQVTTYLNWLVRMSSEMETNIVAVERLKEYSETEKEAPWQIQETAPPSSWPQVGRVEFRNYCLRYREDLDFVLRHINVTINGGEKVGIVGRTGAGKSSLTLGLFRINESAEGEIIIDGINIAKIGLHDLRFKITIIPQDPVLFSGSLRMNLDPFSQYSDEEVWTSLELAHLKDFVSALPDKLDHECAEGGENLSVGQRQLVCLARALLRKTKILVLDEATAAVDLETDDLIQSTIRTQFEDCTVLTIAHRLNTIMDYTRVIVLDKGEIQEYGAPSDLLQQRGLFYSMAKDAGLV

B1: C1.787a: anti-ABCC1 antibody, VH SEQ ID NO: 11, VL SEQ ID NO: 86 (antibody, listed as Rattus norvegicus, V domains shown)
VH: EVQLTESGPGLVQPSQTLSLTCTVSGFSLTSNGVSWVRQPPGKGLEWIAAISSGGSTYYNSAFKSRLSISRHTSKSQVLLNMNSLQTEDTAMYFCARHRGYYWSNWGYFDYWGQGVMVTVSS
VL: NIQLTQSPSLLSASVGDRVTLSCKGSQNINNYLAWYQQKLGEAPKLLIYKTNSLQTGIPSRFSGSGSGTDYTLTLSSLHSEDLATYYCCQYNDGYTFGAGTKLELK
As for B1, in the experiment on CT26 tumor, the “effect of doxorubicin on the inhibition of tumor growth by the antibody” value is “enhanced by doxorubicin” and the “tumor growth in vivo” value is “inhibit tumor growth”.

B2: C1.861.hu11: humanized anti-ABCC1 antibody, VH SEQ ID NO: 33, VL SEQ ID NO: 110 (antibody, V domains shown)
VH: EVQLQESGPGLVKPSETLSLTCTVSGFSLTSNGVTWVRQPPGKGLEWIAAISSGGNIYYNSAVKSRLTISRDTSKNQVSLKLSSVTAADTAVYYCTRARGTTTAYVMDAWGQGTTVTVSS
VL: DVQLTQSPSSLSASVGDRVTITCKSSQSLLYSGNQKNYLAWYQQKPGKSPKLLIYWASTRQSGVPSRFSGSGSGTDFTLTISSLQPEDVATYYCQQYYDVLMNMFGGGTKLEIK
modifications: humanized sequence
As to B2, the “binding to cynomolgus ABCC1 in the titration binding assay” value (shortened to “binding to cynomolgus ABCC1”) with cynomolgus ABCC1 [1] is “bind both human and cynomolgus ABCC1”. In addition, in the experiment with human ABCC1 [2], the “inhibition of the efflux function of the ABCC1 transporter” value (shortened to “inhibition … of the ABCC1 transporter”) was “significantly inhibit the efflux function”. Also, in the experiment with human ABCC1 [3], the “binding to human ABCC1 in the titration binding assay” value (shortened to “binding to human ABCC1”) is “bind both human and cynomolgus ABCC1”.

B3: C1.861.hu21: humanized anti-ABCC1 antibody, VH SEQ ID NO: 34, VL SEQ ID NO: 110 (antibody, V domains shown)
VH: EVQLVESGGGLIQPGGSLRLSCAVSGFSLTSNGVTWVRQPPGKGLEWIAAISSGGNIYYNSAVKSRLTISRDTSKNTVYLQMNSLRAEDTAVYFCTRARGTTTAYVMDAWGQGTTVTVSS
VL: DVQLTQSPSSLSASVGDRVTITCKSSQSLLYSGNQKNYLAWYQQKPGKSPKLLIYWASTRQSGVPSRFSGSGSGTDFTLTISSLQPEDVATYYCQQYYDVLMNMFGGGTKLEIK
modifications: humanized sequence
For the molecule B3, in the experiment with cynomolgus ABCC1 [1], the “binding to cynomolgus ABCC1” value is “bind both human and cynomolgus ABCC1”. In the experiment with human ABCC1 [2], the “inhibition … of the ABCC1 transporter” value is given as “significantly inhibit the efflux function”. Besides, in the experiment with human ABCC1 [3], the “binding to human ABCC1” value was “bind both human and cynomolgus ABCC1”.

B4: C1.844.hu21: humanized anti-ABCC1 antibody, VH SEQ ID NO: 32, VL SEQ ID NO: 109 (antibody, V domains shown)
VH: EVQLVESGGGLIQPGGSLRLSCAVSGFSLTSNGVIWVRQPPGKGLEWIAAISSGGNIYYNSGLKSRLTISRDTSKNTVYLQMNSLRAEDTAVYYCTRARGTTTAYVMDAWGQGTLVTVSS
VL: DIVMTQSPDSLAVSLGERATINCKSSQSLLYSVNQKNYLAWYQQKPGQSPKLLIYWASTRQSGVPDRFSGSGSGTDFTLTISSLQAEDVAVYYCQQYYDTLMKMFGAGTKLELK
modifications: humanized sequence
Turning to B4, the “binding to cynomolgus ABCC1” value with cynomolgus ABCC1 [1] is “bind both human and cynomolgus ABCC1”. The “inhibition … of the ABCC1 transporter” value with human ABCC1 [2] is recorded as “significantly inhibit the efflux function”. Also, in the experiment with human ABCC1 [3], the “binding to human ABCC1” value was “bind both human and cynomolgus ABCC1”.

B5: C1.851.hu12: humanized anti-ABCC1 antibody, VH SEQ ID NO: 27, VL SEQ ID NO: 105 (antibody, V domains shown)
VH: EVQLQESGPGLVKPSETLSLTCTVSGFSLTNNGVSWIRQPPGKGLEWIAAISSGGNIYYNSAFKSRLTISRDTSKNQVSLKLSSVTAADTAVYYCARHRGYYGYNWGYFDYWGQGTLVTVSS
VL: DIQLTQSPSSLSASVGDRVTITCKGSQNINNYLAWYQQKPGKAPKLLIYKTNSLQTGIPSRFSGSGSGTDYTLTISSLQPEDFATYYCYQYNNGYTFGQGTKLEIK
modifications: humanized sequence
B5: the “binding to C6 cells overexpressing cynomolgus ABCC1” value in the experiment with cynomolgus ABCC1 [4] was “retain the ability to bind both human and cynomolgus ABCC1”. Further, the “binding to C6 cells overexpressing human ABCC1” value with human ABCC1 [5] is “retain the ability to bind both human and cynomolgus ABCC1”.

B6: C1.851.hu14: humanized anti-ABCC1 antibody, VH SEQ ID NO: 27, VL printed as SEQ ID NO: 76, LCDR3 SEQ ID NO: 148 (antibody, V domains shown)
VH: EVQLQESGPGLVKPSETLSLTCTVSGFSLTNNGVSWIRQPPGKGLEWIAAISSGGNIYYNSAFKSRLTISRDTSKNQVSLKLSSVTAADTAVYYCARHRGYYGYNWGYFDYWGQGTLVTVSS
VL: DVVMTQTPLSLPVSLGDQASISCRSSQSIVHSNGNTYLEWYLQKPGQSPKLLIYKVSNRFSGVPDRFSGSGTGTDFTLKISRVEAEDLGVYYCFQGSHVPRTFGGGTKLEIK
modifications: humanized sequence; Mus musculus or humanized sequence
Take B6: the “binding to C6 cells overexpressing cynomolgus ABCC1” value in the experiment with cynomolgus ABCC1 [4] was “retain the ability to bind both human and cynomolgus ABCC1”. The “binding to C6 cells overexpressing human ABCC1” value with human ABCC1 [5] is “retain the ability to bind both human and cynomolgus ABCC1”.

B7: C1.851.hu15: humanized anti-ABCC1 antibody, VH SEQ ID NO: 27, VL printed as SEQ ID NO: 77, LCDR3 SEQ ID NO: 149 (antibody, V domains shown)
VH: EVQLQESGPGLVKPSETLSLTCTVSGFSLTNNGVSWIRQPPGKGLEWIAAISSGGNIYYNSAFKSRLTISRDTSKNQVSLKLSSVTAADTAVYYCARHRGYYGYNWGYFDYWGQGTLVTVSS
VL: DVVMTQAPSSLSASLGERISLTCRASQDIYGSLNWFQQKPDGTIKLLIYGTSSLDSGVPKRFSGSRSGSDYSLTISSLESEDFADYYCLQYASSPYTFGGGTKLEIK
modifications: humanized sequence; Mus musculus or humanized sequence
On to B7, for which the “binding to C6 cells overexpressing cynomolgus ABCC1” value with cynomolgus ABCC1 [4] was “retain the ability to bind both human and cynomolgus ABCC1”. The “binding to C6 cells overexpressing human ABCC1” value with human ABCC1 [5] was “retain the ability to bind both human and cynomolgus ABCC1”.

B8: C1.831: anti-ABCC1 antibody, VH SEQ ID NO: 16, VL SEQ ID NO: 90 (antibody, listed as Rattus norvegicus, V domains shown)
VH: EVQLTESGPGLVQPSQTLSLTCTVSGFSLTSNGVSWVRQPPGKGLEWIAAISSGGNIYYNSVLKSRLSISRDTSKSQVFLKMSSVQTEDTAIYFCTRERGWNYPFITNGYYFDYWGQGVMVTVSS
VL: EIMLTQSPSLLSASVGDRVTLSCKAGQNINNYLAWYQQKLGEAPKLLIYNANSLQTGIPSRFSGSGSGTDYTLTISSLQPEDVATYFCQQYNSWYTFGAGTKLEIK
As for B8, in the experiment on CT26 tumor, the “effect of doxorubicin on the inhibition of tumor growth by the antibody” value is reported as “enhanced by doxorubicin” and the “tumor growth in vivo” value is on record as “inhibit tumor growth”.

B9: C1.831.hu11: humanized anti-ABCC1 antibody, VH SEQ ID NO: 29, VL SEQ ID NO: 108 (antibody, V domains shown)
VH: EVQLQESGPGLVKPSETLSLTCTVSGFSLTSNGVSWVRQPPGKGLEWIAAISSGGNIYYNSVLKSRLTISRDTSKNQVSLKLSSVTAADTAVYYCTRERGWNYPFITNGYYFDYWGQGTLVTVSS
VL: DIQLTQSPSSLSASVGDRVTITCKAGQNINNYLAWYQQKPGKAPKLLIYNANSLQTGIPSRFSGSGSGTDYTLTISSLQPEDFATYYCQQYNSWYTFGQGTKLEIK
modifications: humanized sequence
Consider B9, for which, in the experiment with cynomolgus ABCC1 [1], the “binding to cynomolgus ABCC1” value was “bind both human and cynomolgus ABCC1”. Moreover, in the experiment with human ABCC1 [2], the “inhibition … of the ABCC1 transporter” value was “significantly inhibit the efflux function”. Moreover, the “binding to human ABCC1” value with human ABCC1 [3] is “bind both human and cynomolgus ABCC1”.
